Data from patent publication US20220106398A1 (IGM BIOSCIENCES, published 2022).
Changes are numbered by the printed parent chain.

T1: human His6-GITR (human, UniProt Q9Y5U5 26-162)
T1 construct: His6-tagged recombinant protein; also called hGITR-His; human GITR-His
T1 sequence: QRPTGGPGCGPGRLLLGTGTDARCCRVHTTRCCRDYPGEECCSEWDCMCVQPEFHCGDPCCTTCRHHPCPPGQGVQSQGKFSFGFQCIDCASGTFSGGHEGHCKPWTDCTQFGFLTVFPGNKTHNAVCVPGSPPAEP

T2: cynomolgus monkey His6-GITR (cynomolgus monkey)
T2 construct: His6-tagged recombinant protein; also called cGITR-His; cyno GITR-His
T2 chain: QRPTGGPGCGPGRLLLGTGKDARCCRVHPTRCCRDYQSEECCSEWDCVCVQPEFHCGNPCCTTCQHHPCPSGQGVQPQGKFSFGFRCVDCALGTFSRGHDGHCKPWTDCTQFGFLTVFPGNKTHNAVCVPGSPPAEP

T3: mouse His6-GITR (mouse, UniProt O35714 20-153)
T3 construct: His6-tagged recombinant protein; also called mGITR-His; mouse GITR-His
T3 sequence: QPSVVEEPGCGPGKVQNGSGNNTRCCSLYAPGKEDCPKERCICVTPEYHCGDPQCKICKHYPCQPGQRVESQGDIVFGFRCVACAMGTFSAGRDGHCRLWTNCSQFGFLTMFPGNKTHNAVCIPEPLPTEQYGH

B1: GITR-Mab-13 scFv (scFv, V domains shown)
VH: QVQLVQSGAEVKKPGSSVKVSCKASGGTFSSYAISWVRQAPGQGLEWMGGIVPMLGSPHYAQKFQGRVTITADESTSTAYMELSSLRSEDTAVYYCARGSWLVADFQHWGQGTLVTVSS
VL: not shown
notes: scFv in periplasmic extract, V5 tag
B2: GITR-Mab-21 scFv (scFv, V domains shown)
VH: EVQLLESGGGLVQPGGSLRLSCAASGFTFSNHYMSWVRQAPGKGLEWVAVIALDGSYRYYADSVKGRFTISRDNSKNTLYLQMNSLRAEDTAVYYCARVGPGGMDVRGQGTTVTVSS
VL: DIQMTQSPSSLSASVGDRVTITCQASQDISNYLNWYQQKPGKAPKLLIYAASSLQSGVPSRFSGSGSGTDFTLTISSLQPEDFATYYCQQSYNSPRVYTFGQGTKVEIK
notes: as for B1
B3: GITR-Mab-12 scFv (scFv, V domains shown)
VH: QVQLVQSGAEVKKPGASVKVSCKASGYTFTSYAINWVRQAPGQGLEWMGILSPSGGGTSYAPKFQGRVTMTRDTSTSTVYMELSSLRSEDTAVYYCARGPWYFDLWGRGTLVTVSS
VL: DIQMTQSPSSLSASVGDRVTITCRASQGISNSLAWYQQKPGKAPKLLIYAASSLQSGVPSRFSGSGSGTDFTLTISSLQPEDFATYYCQQSYSTPFTFGPGTKVDIK
notes: as for B1
B4: GITR-Mab-24 scFv (scFv, V domains shown)
VH: QVQLVQSGAEVKKPGASVKVSCKASGGTFNNYAINWVRQAPGQGLEWMGTINPRDGDTTYAQKFQGRVTMTRDTSTSTVYMELSSLRSEDTAVYYCARVGYYGSGSYYSYYGMDVWGQGTTVTVSS
VL: B3 VL with G28N, S30T, S32W, S91A, T94F, F96W, P100Q, D105E
notes: as for B1
B5: GITR-Mab-22 scFv (scFv, V domains shown)
VH: QVQLVQSGAEVKKPGASVKVSCKASGGRFSTYALSWVRQAPGQGLEWMGIINPTDGSTTYAQKFQGRVTMTRDTSTSTVYMELSSLRSEDTAVYYCARDVYSSSWYSDYWGQGTLVTVSS
VL: B3 VL with G28S, S32W, S53T, T94V
notes: as for B1
B6: GITR-Mab-18 scFv (scFv, V domains shown)
VH: EVQLLESGGGLVKPGGSLRLSCAASGFTFSSYWMSWVRQAPGKGLEWVSGISWNGGTVGYADSVKGRFTISRDDSKNTLYLQMNSLKTEDTAVYYCAKLGIAVKSHWYFDLWGRGTLVTVSS
VL: B3 VL with Q27E, G28S, N31T, S32W, S93T, T94L, F96L, P100G, V104L, D105E
notes: as for B1
B7: GITR-Mab-16 scFv (scFv, V domains shown)
VH: QVQLVQSGAEVKKPGASVKVSCKASGGTLSSYAISWVRQAPGQGLEWMGWIDPNSGGTNYAQKFQGRVTMTRDTSTSTVYMELSSLRSEDTAVYYCARQGLLWFGESGSIYYYYGMDVWGQGTTVTVSS
VL: B3 VL with Q27R, G28S, S32Y, A34N, A50G, P95L, F96V, P100Q, D105E
notes: as for B1
B8: GITR-Mab-19 scFv (scFv, V domains shown)
VH: QVQLVQSGAEVKKPGASVKVSCKASGYTFTSYDINWVRQAPGQGLEWVGIINPSGGSTSYAQKFQGRVTMTRDTSTSTVYMELSSLRSEDTAVYYCARASSGGYYYYYGMDVWGQGTTVTVSS
VL: B3 VL with G28D, S30V, S32W, S91Y, T94Y, F96L, P100Q, K103R, V104L, D105E
notes: as for B1
B9: GITR-Mab-15 scFv (scFv, V domains shown)
VH: QVQLVQSGAEVKKPGSSVKVSCKASGFTFTTSAVQWVRQAPGQGLEWMGGIIPIFGTANYAQKFQGRVTITADESTSTAYMELSSLRSEDTAVYYCAKGSGYEFPGGSEYFQHWGQGTLVTVSS
VL: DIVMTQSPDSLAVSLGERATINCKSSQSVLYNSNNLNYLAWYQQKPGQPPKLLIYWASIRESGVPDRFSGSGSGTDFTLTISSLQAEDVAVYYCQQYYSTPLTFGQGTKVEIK
notes: as for B1
B10: GITR-Mab-2 scFv (scFv, V domains shown)
VH: QVQLVQSGAEVKKPGSSVKVSCKASGYRFTGYHLHWVRQAPGQGLEWMGGIIPIFGTANYAQKFQGRVTITADKSTSTAYMELSSLRSEDTAVYYCAYGVPPDPWGQGTLVTVSS
VL: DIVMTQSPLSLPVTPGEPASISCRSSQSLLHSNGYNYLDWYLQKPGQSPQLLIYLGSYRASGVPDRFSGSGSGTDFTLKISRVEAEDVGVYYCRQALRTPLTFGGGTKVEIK
notes: as for B1
B11: GITR-Mab-9 scFv (scFv, V domains shown)
VH: QVQLVQSGAEVKKPGASVKVSCKASGHTFTSQYMHWVRQAPGQGLEWVGVINPNDGSTSYAQKFQGRVTMTRDTSTSTVYMELSSLRSEDTAVYYCARDGAYYYDSSGYYRSSNFDYWGQGTLVTVSS
VL: DIQMTQSPSSLSASVGDRVTITCQASQDIGNYLNWYQQKPGKAPKLLIYGASNLETGVPSRFSGSGSGTDFTLTISSLQPEDFATYYCQQGYSFPLTFGQGTKVEIK
notes: as for B1
B12: GITR-Mab-14 scFv (scFv, V domains shown)
VH: EVQLLESGGGLVKPGGSLRLSCAASGFRFSVYWMSWVRQAPGKGLEWVSGISGSGGTTYYADSVKGRFTISRDDSKNTLYLQMNSLKTEDTAVYYCARVRRDGYNYNFDYWGQGTLVTVSS
VL: B11 VL with G30S, Y49F, G50D, N53S, T56A, G91A, Y92N, L96P, K103E
notes: as for B1
B13: GITR-Mab-20 scFv (scFv, V domains shown)
VH: QVQLVQSGAEVKKPGASVKVSCKASGGTFSNYAISWVRQAPGQGLEWMGVINPRGGSTTYAQKFQGRVTMTRDTSTSTVYMELSSLRSEDTAVYYCARDYSIPYYGMDVWGQGTTVTVSS
VL: B11 VL with Q24R, D28S, G30S, N31T, G50D, G91S, F94T, Q100G
notes: as for B1
B14: GITR-Mab-10 scFv (scFv, V domains shown)
VH: QVQLVQSGAEVKKPGASVKVSCKASGYTFTSNYMHWVRQAPGQGLEWMGWMNPNSGNTAYAQKFQGRVTMTRDTSTSTVYMELSSLRSEDTAVYYCARGRGGQLLFDYWGQGTLVTVSS
VL: DIQMTQSPSSLSASVGDRVTITCRASQGISSWLAWYQQKPGKAPKLLIYAASTLQSGVPSRFSGSGSGTDFTLTISSLQPEDFATYYCQQYNSYSTFGQGTKVEIK
notes: as for B1
B15: GITR-Mab-11 scFv (scFv, V domains shown)
VH: QVQLVQSGAEVKKPGASVKVSCKASGGTFSNYGISWVRQAPGQGLEWMGIINPTDGSTTYAQKFQGRVTMTRDTSTSTVYMELSSLRSEDTAVYYCARWWGSGWSWYFDLWGRGTLVTVSS
VL: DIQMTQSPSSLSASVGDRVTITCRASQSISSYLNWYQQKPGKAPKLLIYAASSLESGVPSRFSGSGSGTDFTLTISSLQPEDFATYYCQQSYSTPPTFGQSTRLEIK
notes: as for B1

The binders below were run against T1, human His6-GITR (assay: CARTERRA LSA, scFv periplasmic extract).

Row | Kd | Binder
1 | 2.6 nM | B1
2 | 2.9 nM | B2
3 | 7.5 nM | B3
4 | 38.9 nM | B4
5 | 2.3 nM | B5
6 | 1 nM | B6
7 | 0.8 nM | B7
8 | 10.8 nM | B8
9 | 52.1 nM | B9
10 | 16.3 nM | B10
11 | 3.3 nM | B11
12 | 30.3 nM | B12
13 | 7.8 nM | B13
14 | 5.3 nM | B14
15 | 1.4 nM | B15

Target: T2, cynomolgus monkey His6-GITR
Assay: ELISA, scFv periplasmic extract on coated His6-GITR
Procedure: (§1) The SuperHuman-2.0 scFv Antibody Library (available from Distributed Bio, South San Francisco, Calif.) was used to perform selection with human, cynomolgus or mouse GITR proteins. Selected phage clones from overnight growth were inoculated into wells in 96 well deep well plates containing 1 mL of medium. scFv expression was induced by addition of IPTG (Teknova) to a final concentration of 1 mM. Plates were grown overnight after induction. To prepare periplasmic extracts (PPE), the plates containing the phage clones were centrifuged at 2500 rpm for 10 min, the supernatant discarded and then pellets treated with 75 μL of cold periplasmic extract buffer with appropriate concentration of protease inhibitors (Complete Mini, EDTA-free -Roche Applied Biosciences—Cat No 1836170). After shaking at room temperature for 10 min, 225 μL of cold ddH2O with added protease inhibitor (1 tablet/50 mL) was added per well and mixed by pipetting up and down. PPE extraction was completed by incubation at room temperature for an additional 1 hr. The plates were then centrifuged at 4000 rpm for 20 minutes and 200 μL of PPE supernatant was collected from each well and transferred to a new plate which was then blocked with equal volume of 4% milk (2% final) to prepare blocked PPE extracts. In the meantime, Maxisorp plates (Nunc 442404) coated with relevant antigen (human, mouse or cynomolgus monkey His6-GITR) at 50 μl/well of 1 μg/mL antigen or 2% BSA in PBS as control were prepared for ELISA analyses. Next, 50 μL of each blocked PPE extract was transferred to the pre-blocked ELISA plates coated with the relevant antigens. After incubation and washing 3× with PBS, 50 μL of anti-V5 tag antibody (tag included in the phage display constructs, Invitrogen Cat No R960-25) at 1:5000 dilution in 2% milk was added and the plates were incubated for 1 hr. […] After further washing 3× with PBST, 50 μl/well of TMB substrate was added and the plates were developed until positive controls were visible. The reaction was stopped with 50 μl/well of 2N H2SO4. Plates were read at 450 nm to determine ELISA signal from bound PPE derived scFv.

Row | cGITR-His/BKG | Binder
16 | 9.4 fold over background | B1
17 | 21.2 fold over background | B2
18 | 16.9 fold over background | B3
19 | 5.7 fold over background | B4
20 | 23.3 fold over background | B5
21 | 17.7 fold over background | B6
22 | 21.6 fold over background | B7
23 | 24.6 fold over background | B8
24 | 12.3 fold over background | B9
25 | 25.2 fold over background | B10
26 | 11.6 fold over background | B11
27 | 11.5 fold over background | B12
28 | 15.3 fold over background | B13
29 | 29.4 fold over background | B14
30 | 15.6 fold over background | B15

What follows are binders tested against T3, mouse His6-GITR in the same assay as above.
Procedure: as §1

Row | mGITR-His/BKG | Binder
31 | 1.1 fold over background | B1
32 | 1.2 fold over background | B2
33 | 1 fold over background | B3
34 | 1.7 fold over background | B4
35 | 1.2 fold over background | B5
36 | 1 fold over background | B6
37 | 0.8 fold over background | B7
38 | 1.3 fold over background | B8
39 | 1.2 fold over background | B9
40 | 1.1 fold over background | B10
41 | 1.1 fold over background | B11
42 | 0.9 fold over background | B12
43 | 1.1 fold over background | B13
44 | 1.1 fold over background | B14
45 | 1.1 fold over background | B15

What follows are binders tested against T1, human His6-GITR in the same assay as above.
Procedure: as §1

Row | hGITR-His/BKG | Binder
46 | 25.4 fold over background | B1
47 | 13.5 fold over background | B2
48 | 37.8 fold over background | B3
49 | 19 fold over background | B4
50 | 25.7 fold over background | B5
51 | 17.9 fold over background | B6
52 | 24.1 fold over background | B7
53 | 10 fold over background | B8
54 | 11.4 fold over background | B9
55 | 20.1 fold over background | B10
56 | 12.8 fold over background | B11
57 | 34 fold over background | B12
58 | 24.7 fold over background | B13
59 | 34.2 fold over background | B14
60 | 21.8 fold over background | B15
